{"source": "the RNAGym collection of RNA variant scans (doi:10.7554/elife.80360)", "parents": {"B1": {"name": "CPEB3 Ribozyme (parent)", "chain": "GGGGGCCACAGCAGAAGCGUUCACGUCGCGGCCCCUGUCAGAUUCUGGUGAAUCUGCGAAUUCUGCUGU"}}}
{"variants_of": "B1", "test": "self-cleavage, relative activity (ratio to wild type); higher = more cleavage; co-transcriptional"}
{"variant": "GGGGGCCACAGUAGUAGCGUUCACGUCGCGGCCCCUGUCAGAUUCUGGUGAAUCUGCGAAUUCUGCUGU", "self-cleavage": 0.502}
{"variant": "GGGGGCCACAGGAGAAGCGUUCACGUCGCGGCCCCUGUCAGAUUCUGGUGAAUCUGCGAAUUCAGCUGU", "self-cleavage": 0.508}
{"variant": "GGGGGCCACAGGAGAAGCGUUCACGUCGCGGCCCCUGUCAGAUUCUGGUGAAUCUGCGAAUUCUACUGU", "self-cleavage": 0.932}
{"variant": "GGGGGCCACAGGAGAAGCGUUCACGUCGCGGCCCCUGUCAGAUUCUGGUGAAUCUGCGAAUUCUUCUGU", "self-cleavage": 0.952}
{"variant": "GGGGGCCACAGGAGAAGCGUUCACGUCGCGGCCCCUGUCAGAUUCUGGUGAAUCUGCGAAUUCUCCUGU", "self-cleavage": 0.934}
{"variant": "GGGGGCCACAGGAGAAGCGUUCACGUCGCGGCCCCUGUCAGAUUCUGGUGAAACUGCGAAUUCUGCUGU", "self-cleavage": 0.634}
{"variant": "GGGGGCCACAGGAGAAGCGUUCACGUCGCGGCCCCUGUCAGAUUCUGGUGAAGCUGCGAAUUCUGCUGU", "self-cleavage": 0.654}
{"variant": "GGGGGCCACAGGAGAAGCGUUCACGUCGCGGCCCCUGUCAGAUUCUGGUGAACCUGCGAAUUCUGCUGU", "self-cleavage": 0.408}
{"variant": "GGGGGCCACAGGAGAAGCGUUCACGUCGCGGCCCCUGUCAGAUUCUGGUGAAUCUGCUAAUUCUGCUGU", "self-cleavage": 0.945}
{"variant": "GGGGGCCACAGGAGAAGCGUUCACGUCGCGGCCCCUGUCAGAUUCUGGUGAAUCUGCAAAUUCUGCUGU", "self-cleavage": 0.852}
{"variant": "GGGGGCCACAGUAGAAGCGUUCACGUCGCGGCCCCUGUCAGGUUCUGGUGAAUCUGCGAAUUCUGCUGU", "self-cleavage": 0.863}
{"variant": "GGGGGCCACAGUAGAAGCGUUCACGUCGCGGCCCCUGUCAGUUUCUGGUGAAUCUGCGAAUUCUGCUGU", "self-cleavage": 0.91}
{"variant": "GGGGGCCACAGUAGAAGCGUUCACGUCGCGGCCCCUGUCAGCUUCUGGUGAAUCUGCGAAUUCUGCUGU", "self-cleavage": 0.885}
{"variant": "GGGGGCCACAGUAGAAGCGUUCACGUCGCGGCCCCUGUCAGAUUCUGGUGAAUCUGCGGAUUCUGCUGU", "self-cleavage": 0.968}
{"variant": "GGGGGCCACAGUAGAAGCGUUCACGUCGCGGCCCCUGUCAGAUUCUGGUGAAUCUGCGUAUUCUGCUGU", "self-cleavage": 0.822}
{"variant": "GGGGGCCACAGUAGAAGCGUUCACGUCGCGGCCCCUGUCAGAUUCUGGUGAAUCUGCGCAUUCUGCUGU", "self-cleavage": 0.623}
{"variant": "GGGGGCCACAGUAGAAGCGUUCACGUCGCGGCCCCUGUCAGAUUCUGGUGAAUCUGCGAGUUCUGCUGU", "self-cleavage": 0.716}
{"variant": "GGGGGCCACAGUAGAAGCGUUCACGUCGCGGCCCCUGUCAGAUUCUGGUGAAUCUGCGACUUCUGCUGU", "self-cleavage": 0.299}
{"variant": "GGGGGCCACAGUAGAAGCGUUCUCGUCGCGGCCCCUGUCAGAUUCUGGUGAAUCUGCGAAUUCUGCUGU", "self-cleavage": 0.963}
{"variant": "GGGGGCCACAGUAGAAGCGUUCGCGUCGCGGCCCCUGUCAGAUUCUGGUGAAUCUGCGAAUUCUGCUGU", "self-cleavage": 0.946}
{"variant": "GGGGGCCACAGUAGAAGCGUUCACGUCGCGGCCCCUGUCCGAUUCUGGUGAAUCUGCGAAUUCUGCUGU", "self-cleavage": 0.358}
{"variant": "GGGGGCCACAGUAGAAGCGUUCACGUCGCGGCCCCUGUCGGAUUCUGGUGAAUCUGCGAAUUCUGCUGU", "self-cleavage": 0.902}
{"variant": "GGGGGCCACAGGAGAAGCGUUCACGUCGCGGCCCCUGUCAGAUCCUGGUGAAUCUGCGAAUUCUGCUGU", "self-cleavage": 0.488}
{"variant": "GGGGGCCACAGGAGAAGCGUUCACGUCGCGGCCCCUGUCAGAUGCUGGUGAAUCUGCGAAUUCUGCUGU", "self-cleavage": 0.868}
{"variant": "GGGGGCCACAGUAGAAGGGUUCACGUCGCGGCCCCUGUCAGAUUCUGGUGAAUCUGCGAAUUCUGCUGU", "self-cleavage": 0.218}
{"variant": "GGGGGCCACAGUAGAAGAGUUCACGUCGCGGCCCCUGUCAGAUUCUGGUGAAUCUGCGAAUUCUGCUGU", "self-cleavage": 0.0961}
{"variant": "GGGGGCCACAGUAGAAGUGUUCACGUCGCGGCCCCUGUCAGAUUCUGGUGAAUCUGCGAAUUCUGCUGU", "self-cleavage": 0.6}
{"variant": "GGGGGCCACAGGAGAAGCGUGCACGUCGCGGCCCCUGUCAGAUUCUGGUGAAUCUGCGAAUUCUGCUGU", "self-cleavage": 0.364}
{"variant": "GGGGGCCACAGGAGAAGCGUACACGUCGCGGCCCCUGUCAGAUUCUGGUGAAUCUGCGAAUUCUGCUGU", "self-cleavage": 0.845}
{"variant": "GGGGGCCACAGGAGAAGCGUUCACGUCGCGGCCCCUGUCAGAUUCUGGUGAAUCUGCGAAUUCUGCUGG", "self-cleavage": 1.04}
{"variant": "GGGGGCCACAGGAGAAGCGUUCACGUCGCGGCCCCUGUCAGAUUCUGGUGAAUCUGCGAAUUCUGCUGA", "self-cleavage": 0.881}
{"variant": "GGGGGCCACAGUUGAAGCGUUCACGUCGCGGCCCCUGUCAGAUUCUGGUGAAUCUGCGAAUUCUGCUGU", "self-cleavage": 0.583}
{"variant": "GGGGGCCACAGUCGAAGCGUUCACGUCGCGGCCCCUGUCAGAUUCUGGUGAAUCUGCGAAUUCUGCUGU", "self-cleavage": 0.629}
{"variant": "GGGGGCCACAGUGGAAGCGUUCACGUCGCGGCCCCUGUCAGAUUCUGGUGAAUCUGCGAAUUCUGCUGU", "self-cleavage": 0.793}
{"variant": "GGGGGCCACAGGAGAAGCGUUCACGUCGCGGCCCCUGUCAGAUUCUCGUGAAUCUGCGAAUUCUGCUGU", "self-cleavage": 0.888}
{"variant": "GGGGGCCACAGGAGAAGCGUUCACGUCGCGGCCCCUGUCAGAUUCUUGUGAAUCUGCGAAUUCUGCUGU", "self-cleavage": 0.965}
{"variant": "GGGGGCCACAGGAGAAGCGUUCACGUCGCGGCCCCUGUCAGAUUCUAGUGAAUCUGCGAAUUCUGCUGU", "self-cleavage": 0.912}
{"variant": "GGGGGCCACAGGAGAAGCGUUCACGUCGCGGCCCCUGUCAGAUUCUGAUGAAUCUGCGAAUUCUGCUGU", "self-cleavage": 0.953}
{"variant": "GGGGGCCACAGGAGAAGCGUUCACGUCGCGGCCCCUGUCAGAUUCUGUUGAAUCUGCGAAUUCUGCUGU", "self-cleavage": 0.925}
